Results reported in patent US20050059803A1 (ARIAD GENE THERAPEUTICS, published 2005).

Target: LexA-FKBP12 fusion protein (human FKBP12, bait plasmid pIC504) (human, UniProt P62942 1-104)
Assay: cell-based or functional assay

Chain of LexA-FKBP12 fusion protein (human FKBP12, bait plasmid pIC504) (P62942 other isoform, or with tags, fused parts or gaps limits assumed): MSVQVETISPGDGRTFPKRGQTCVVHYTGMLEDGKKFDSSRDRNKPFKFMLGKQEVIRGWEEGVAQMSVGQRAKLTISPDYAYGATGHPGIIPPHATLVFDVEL

B1: human RAPT1 rapamycin-binding domain fused to the VP16 activation domain (other)
chain: VSEELIRVAILWHEMWHEGLEEASRLYFGERNVKGMFEVLEPLHAMMERGPQTLKETSFNQAYGRDLMEAQEWCRKYMKSGNVKDLTQAWDLYYHVFRRISKQLPQLTSLELQYVSPKLLMCRDLELAVPGTYDPNQPIIRIQSIAPSLQVITSKQRPRKLTLMGSNGHEFVF
In the case of B1, the “β-galactosidase activity (lacZ reporter, chemiluminescent substrate)” value is reported as ~1000 fold.
